Measured values as given in patent US20170015742A1 (published 2017).

T1: recombinant cynomolgus PDGF-BB (cynomolgus monkey, UniProt P01127 82-190 (human entry), limits assumed)
T1 chain: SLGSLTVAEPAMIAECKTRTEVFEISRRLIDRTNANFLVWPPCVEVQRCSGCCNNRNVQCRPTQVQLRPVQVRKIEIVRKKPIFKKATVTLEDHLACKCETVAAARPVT


Columns and labels:
Experiment in all cases: cell-based or functional assay
[1] = biological target: T1, recombinant cynomolgus PDGF-BB
[2] = biological target: recombinant murine PDGF-BB (mouse, UniProt P31240 82-190)
recombinant rat PDGF-BB = recombinant rat PDGF-BB (rat, UniProt Q05028 74-182)
[3] = biological target: recombinant human PDGF-BB (human, UniProt P01127 82-190)

Chain of recombinant murine PDGF-BB (P31240 82-190 limits assumed): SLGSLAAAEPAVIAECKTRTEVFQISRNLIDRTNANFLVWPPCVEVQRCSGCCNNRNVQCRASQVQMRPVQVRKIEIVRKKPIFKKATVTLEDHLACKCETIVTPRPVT
Chain of recombinant rat PDGF-BB (Q05028 74-182 limits assumed): as the sequence (P31240 82-190 limits assumed) above, with I83V, I102V counted along it

| Binder | Potency IC50 (nM) cynoPDGF-BB (NIH-3T3 proliferation) [1] [nM] | Potency IC50 (nM) mPDGF-BB (NIH-3T3 proliferation) [2] [nM] | Potency IC50 (nM) ratPDGF-BB (NIH-3T3 proliferation) (recombinant rat PDGF-BB) [nM] | Co-incubation Potency IC50 (nM) hPDGF-BB (NIH-3T3 proliferation, DVD-Ig pre-incubated with excess hVEGF165) [3] [nM] |
| --- | --- | --- | --- | --- |
| 4G8.3-GS-9E8.4 (g) anti-VEGF-A/anti-PDGF-BB DVD-Ig (PR-1572102) (bispecific antibody, human IgG1, kappa, L234A L235A) heavy: EVQLVQSGSELKKPGASVKVSCKASGYTFTNYGMYWVRQAPGQGLEWMGWINTETGKPTYADDFKGRFVFSLDTSVSTAYLQISSLKAEDTAVYYCARTNYYYRSYIFYFDYWGQGTMVTVSSGGGGSGGGGSEVTLRESGPALVKPTQTLTLTCTFSGFSLSTYGMGVGWIRQPPGKALEWLANIWWDDDKYYNPSLKNRLTISKDTSKNQVVLTMTNMDPVDTATYYCARIESIGTTYSFDYWGQGTMVTVSSASTKGPSVFPLAPSSKSTSGGTAALGCLVKDYFPEPVTVSWNSGALTSGVHTFPAVLQSSGLYSLSSVVTVPSSSLGTQTYICNVNHKPSNTKVDKKVEPKSCDKTHTCPPCPAPEAAGGPSVFLFPPKPKDTLMISRTPEVTCVVVDVSHEDPEVKFNWYVDGVEVHNAKTKPREEQYNSTYRVVSVLTVLHQDWLNGKEYKCKVSNKALPAPIEKTISKAKGQPREPQVYTLPPSREEMTKNQVSLTCLVKGFYPSDIAVEWESNGQPENNYKTTPPVLDSDGSFFLYSKLTVDKSRWQQGNVFSCSVMHEALHNAYTQKSLSLSPGK light: DTVLTQSPATLSLSPGERATLSCRASESVSTHMHWYQQKPGQAPRLLIYGASNLESGVPARFSGSGSGTDFTLTISSLEPEDFAVYFCQQSWNDPFTFGQGTKLEIKRGGSGGGGSGEFVLTQSPGTLSLSPGERATLSCERSSGDIGDSYVSWYQQKPGQAPRLVIYADDQRPSGIPDRFSGSGSGTDFTLTISRLEPEDFAVYYCQSYDINIDIVFGGGTKVEIKRTVAAPSVFIFPPSDEQLKSGTASVVCLLNNFYPREAKVQWKVDNALQSGNSQESVTEQDSKDSTYSLSSTLTLSKADYEKHKVYACEVTHQGLSSPVTKSFNRGEC | 0.139 | 0.174 | 2.2 | 0.051 |
| 4G8.3-LS-9E8.4 (g) anti-VEGF-A/anti-PDGF-BB DVD-Ig (PR-1572106) (bispecific antibody, human IgG1, kappa, L234A L235A) heavy: EVQLVQSGSELKKPGASVKVSCKASGYTFTNYGMYWVRQAPGQGLEWMGWINTETGKPTYADDFKGRFVFSLDTSVSTAYLQISSLKAEDTAVYYCARTNYYYRSYIFYFDYWGQGTMVTVSSASTKGPSVFPLAPEVTLRESGPALVKPTQTLTLTCTFSGFSLSTYGMGVGWIRQPPGKALEWLANIWWDDDKYYNPSLKNRLTISKDTSKNQVVLTMTNMDPVDTATYYCARIESIGTTYSFDYWGQGTMVTVSSASTKGPSVFPLAPSSKSTSGGTAALGCLVKDYFPEPVTVSWNSGALTSGVHTFPAVLQSSGLYSLSSVVTVPSSSLGTQTYICNVNHKPSNTKVDKKVEPKSCDKTHTCPPCPAPEAAGGPSVFLFPPKPKDTLMISRTPEVTCVVVDVSHEDPEVKFNWYVDGVEVHNAKTKPREEQYNSTYRVVSVLTVLHQDWLNGKEYKCKVSNKALPAPIEKTISKAKGQPREPQVYTLPPSREEMTKNQVSLTCLVKGFYPSDIAVEWESNGQPENNYKTTPPVLDSDGSFFLYSKLTVDKSRWQQGNVFSCSVMHEALHNAYTQKSLSLSPGK light: DTVLTQSPATLSLSPGERATLSCRASESVSTHMHWYQQKPGQAPRLLIYGASNLESGVPARFSGSGSGTDFTLTISSLEPEDFAVYFCQQSWNDPFTFGQGTKLEIKRTVAAPEFVLTQSPGTLSLSPGERATLSCERSSGDIGDSYVSWYQQKPGQAPRLVIYADDQRPSGIPDRFSGSGSGTDFTLTISRLEPEDFAVYYCQSYDINIDIVFGGGTKVEIKRTVAAPSVFIFPPSDEQLKSGTASVVCLLNNFYPREAKVQWKVDNALQSGNSQESVTEQDSKDSTYSLSSTLTLSKADYEKHKVYACEVTHQGLSSPVTKSFNRGEC | 0.094 | 0.14 |  |  |

Continued, values first:

| Potency IC50 (nM) cynoPDGF-BB (NIH-3T3 proliferation) [1] [nM] | Potency IC50 (nM) mPDGF-BB (NIH-3T3 proliferation) [2] [nM] | Potency IC50 (nM) ratPDGF-BB (NIH-3T3 proliferation) (recombinant rat PDGF-BB) [nM] | Co-incubation Potency IC50 (nM) hPDGF-BB (NIH-3T3 proliferation, DVD-Ig pre-incubated with excess hVEGF165) [3] [nM] | Binder |
| --- | --- | --- | --- | --- |
| 0.139 | 0.134 | 1.51 | 0.032 | hVEGF 4G8.3-GS-hPDGF 9E8.4 [hu IgG1/k] mut(234, 235) H435A (PR-1569574) (bispecific antibody) heavy: EVQLVQSGSELKKPGASVKVSCKASGYTFTNYGMYWVRQAPGQGLEWMGWINTETGKPTYADDFKGRFVFSLDTSVSTAYLQISSLKAEDTAVYYCARTNYYYRSYIFYFDYWGQGTMVTVSSGGGGSGGGGSEVTLRESGPALVKPTQTLTLTCTFSGFSLSTYGMGVGWIRQPPGKALEWLANIWWDDDKYYNPSLKNRLTISKDTSKNQVVLTMTNMDPVDTATYYCARIESIGTTYSFDYWGQGTMVTVSSASTKGPSVFPLAPSSKSTSGGTAALGCLVKDYFPEPVTVSWNSGALTSGVHTFPAVLQSSGLYSLSSVVTVPSSSLGTQTYICNVNHKPSNTKVDKKVEPKSCDKTHTCPPCPAPEAAGGPSVFLFPPKPKDTLMISRTPEVTCVVVDVSHEDPEVKFNWYVDGVEVHNAKTKPREEQYNSTYRVVSVLTVLHQDWLNGKEYKCKVSNKALPAPIEKTISKAKGQPREPQVYTLPPSREEMTKNQVSLTCLVKGFYPSDIAVEWESNGQPENNYKTTPPVLDSDGSFFLYSKLTVDKSRWQQGNVFSCSVMHEALHNAYTQKSLSLSPGK light: DTVLTQSPATLSLSPGERATLSCRASESVSTHMHWYQQKPGQAPRLLIYGASNLESGVPARFSGSGSGTDFTLTISSLEPEDFAVYFCQQSWNDPFTFGQGTKLEIKRGGSGGGGSGEFVLTQSPGTLSLSPGERATLSCERSSGDIGDSYVSWYQQKPGQAPRLVIYADDQRPSGIPDRFSGSGSGTDFTLTISRLEPEDFAVYYCQSYDINIDIVFGGGTKVEIKGTVAAPSVFIFPPSDEQLKSGTASVVCLLNNFYPREAKVQWKVDNALQSGNSQESVTEQDSKDSTYSLSSTLTLSKADYEKHKVYACEVTHQGLSSPVTKSFNRGEC |
| 0.142 | 0.096 | 1.3 | 0.047 | 4G8.3-SL-9E8.4 (g) anti-VEGF-A/anti-PDGF-BB DVD-Ig (PR-1572105) (bispecific antibody, human IgG1, kappa, L234A L235A) heavy: EVQLVQSGSELKKPGASVKVSCKASGYTFTNYGMYWVRQAPGQGLEWMGWINTETGKPTYADDFKGRFVFSLDTSVSTAYLQISSLKAEDTAVYYCARTNYYYRSYIFYFDYWGQGTMVTVSSASTKGPEVTLRESGPALVKPTQTLTLTCTFSGFSLSTYGMGVGWIRQPPGKALEWLANIWWDDDKYYNPSLKNRLTISKDTSKNQVVLTMTNMDPVDTATYYCARIESIGTTYSFDYWGQGTMVTVSSASTKGPSVFPLAPSSKSTSGGTAALGCLVKDYFPEPVTVSWNSGALTSGVHTFPAVLQSSGLYSLSSVVTVPSSSLGTQTYICNVNHKPSNTKVDKKVEPKSCDKTHTCPPCPAPEAAGGPSVFLFPPKPKDTLMISRTPEVTCVVVDVSHEDPEVKFNWYVDGVEVHNAKTKPREEQYNSTYRVVSVLTVLHQDWLNGKEYKCKVSNKALPAPIEKTISKAKGQPREPQVYTLPPSREEMTKNQVSLTCLVKGFYPSDIAVEWESNGQPENNYKTTPPVLDSDGSFFLYSKLTVDKSRWQQGNVFSCSVMHEALHNAYTQKSLSLSPGK light: DTVLTQSPATLSLSPGERATLSCRASESVSTHMHWYQQKPGQAPRLLIYGASNLESGVPARFSGSGSGTDFTLTISSLEPEDFAVYFCQQSWNDPFTFGQGTKLEIKRTVAAPSVFIFPPEFVLTQSPGTLSLSPGERATLSCERSSGDIGDSYVSWYQQKPGQAPRLVIYADDQRPSGIPDRFSGSGSGTDFTLTISRLEPEDFAVYYCQSYDINIDIVFGGGTKVEIKRTVAAPSVFIFPPSDEQLKSGTASVVCLLNNFYPREAKVQWKVDNALQSGNSQESVTEQDSKDSTYSLSSTLTLSKADYEKHKVYACEVTHQGLSSPVTKSFNRGEC |
